Drawing on publication PMC11893775, this text covers IC50 of D6R for inhibition of the in vitro cleavage of the fluorogenic substrate Boc-RVRR-AMC by rFurin and IC50 of D6R for inhibition of the in vitro cleavage of the fluorogenic substrate Boc-VPR-AMC by rKLK8 for 1 molecule.

Test [1] deals with recombinant human furin lacking the trans-membrane domain and cytosolic tail (human) (UniProt P09958).
The target of test [2] is T1, recombinant kallikrein-8 (rKLK8) (UniProt O60259).
T1 sequence: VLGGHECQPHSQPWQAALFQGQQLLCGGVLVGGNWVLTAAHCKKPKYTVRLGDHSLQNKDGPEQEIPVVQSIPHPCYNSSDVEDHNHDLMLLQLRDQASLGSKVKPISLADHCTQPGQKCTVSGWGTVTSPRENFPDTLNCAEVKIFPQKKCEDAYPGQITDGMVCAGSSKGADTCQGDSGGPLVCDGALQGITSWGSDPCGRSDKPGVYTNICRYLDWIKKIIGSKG

Non-standard residues stand in square brackets, D forms with d. No end group written: not given here.

Chain of UniProt P09958 (P09958 108-715): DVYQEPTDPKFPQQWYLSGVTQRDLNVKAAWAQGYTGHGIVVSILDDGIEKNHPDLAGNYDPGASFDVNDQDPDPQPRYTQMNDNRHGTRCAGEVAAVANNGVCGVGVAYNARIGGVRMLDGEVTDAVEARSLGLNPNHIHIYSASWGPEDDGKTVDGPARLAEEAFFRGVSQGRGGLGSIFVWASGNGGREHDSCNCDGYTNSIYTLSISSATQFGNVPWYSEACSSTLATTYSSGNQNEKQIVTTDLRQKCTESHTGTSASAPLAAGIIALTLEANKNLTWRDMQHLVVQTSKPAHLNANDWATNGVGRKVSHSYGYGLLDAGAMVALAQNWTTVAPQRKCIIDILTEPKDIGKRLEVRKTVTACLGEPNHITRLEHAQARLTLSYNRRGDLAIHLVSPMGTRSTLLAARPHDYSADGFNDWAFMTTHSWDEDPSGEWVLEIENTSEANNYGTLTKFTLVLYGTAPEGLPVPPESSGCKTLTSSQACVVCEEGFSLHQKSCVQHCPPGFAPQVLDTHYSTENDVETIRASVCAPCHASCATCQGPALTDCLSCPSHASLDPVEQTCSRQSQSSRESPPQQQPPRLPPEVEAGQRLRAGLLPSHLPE

For the molecule [dR][dR][dR][dR][dR][dR] [hexa-D-arginine], the IC50 of D6R for inhibition of the in vitro cleavage of the fluorogenic substrate Boc-RVRR-AMC by rFurin in test [1] worked out at 780 nM. In addition, the IC50 of D6R for inhibition of the in vitro cleavage of the fluorogenic substrate Boc-VPR-AMC by rKLK8 in test [2] was below 25000 nM.
